Twelve sequences from the supplement of paper PMC10201428 can be followed below.

± gives the standard deviation of the averaged measurements.

Data set [1] deals with VchCAST RNA-guided transposition machinery (E. coli BL21(DE3) host, lacZ target). The data set can be described thus: relative integration efficiency (T-RL orientation) vs wild-type transposon end (log2 (normalized fold change)); transposon end mutated: left end; higher = more efficient transposition. In a few lines: (§1)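 In E. coli BL21(DE3), a T7-driven effector plasmid was paired with a pUC57 mini-transposon donor containing 1549 left-end or 1849 right-end barcoded transposon variants. Cells grew on plates with 0.1 mM IPTG at 37°C for 18 h. Relative integration efficiency was derived from Illumina reads of genomic integration junctions against input plasmids, as a log-transformed output/input barcode fold change normalised to reference barcodes.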

For data set [2] the test system is unchanged. The experiment in a line: relative integration efficiency (T-LR orientation) vs wild-type transposon end (log2 (normalized fold change)); transposon end mutated: left end; higher = more efficient transposition. In a few lines: as §1

“AATGTTGTTGATGCACCCATAAATTGATATTGCATAATTATTTATAATCAGCAACTTAACCACAAAACAACCATATATTGATATCTCACAAAAGTTGGTATTCAACTATAAAATGTGAATCGAGTATTTCAGCAAAACTACTGCAGTAAGAA”: the “relative integration efficiency (log2)” value was -3.48 ± 0.92 in data set [1] and -1.64 ± 1.3 in data set [2].
As for “AATGTTGTTGATGCAACCATAAAGTGATATTTACCGACTGTCTGCCATCCGCCGCTGCACCGCAGCCCAACCATATATTGATATCTCACAAAACAACCATAAGTTGATATTTTTGTGAATCGAGTATTTCAGCAAAACTACTGCAGTAAGAA”, the “relative integration efficiency (log2)” value is -3.24 ± 1 in data set [1] and -2.44 ± 0.78 in data set [2].
For “AATGTTGTTGATGCAACCATAAAGTGATATTTAATAATTATTTACAACCATATATTGATATCTCTAATCAGCAACTTAACCACAAAAACAAAACAACCATAAGTTGATATTTTTGTGAATCGAGTATTTCAGCAAAACTACTGCAGTAAGAA” the same measures were -4.75 ± 1.3 and -2.24 ± 2.1.
Take “AATGTTGTTGATGCAACCATAAAGTGATATTTAATAATTATTTATAATCAGCAACTTAACAACCATATATTGATATCTCACAAAACAACCATAAGTTGATATTTTTGTGAATCGAGTATTTCAGCAAAACTACTGCAGTAAGAAAGTTACTT”: the figures for the “relative integration efficiency (log2)” value in data set [1] and in data set [2] were -3.63 ± 1.3 and -4.07 ± 1.9, respectively.
For “AATGTTGTTGATGCAACCATAAAGTGATATTTAATAACAACCATATATTGATATCTCACAAAACAACCATAAGTTGATATTTTTTATTTATAATCAGCAACTTAACCACAAAATGTGAATCGAGTATTTCAGCAAAACTACTGCAGTAAGAA”, the “relative integration efficiency (log2)” value in data set [1] is -3.74 ± 0.68; in data set [2], -1.89 ± 1.
For “AATGTTGTTGACAACCATAAAGTGATATTTAATAATTATTTATAATCAGCAACTTAACCACAAAACAACCATATATTGATATCTCACAAAACAACCATAAGTTGATATTTTTGTGAATCGAGTATTTCAGCAAAACTACTGCAGTAAGAAAG” the same measures were -1.33 ± 0.66 and -5.1 ± 0.69.
For “AATGTTGTTGATGCAACCATAAAGTGATATTTAATAATTATTTATAATCAGCAACTTAACCACAAAACACAACGCGCGGTCGCGAGACACCCCACCAACGCCTGGTCGCGGGGGTGTCCGATCTGATTTCAGCAAAACTACTGCAGTAAGAA” the same measures were -6.99 ± 3 and -4.26 ± 0.12.
As to “AATGTTGTTGATGCAACCATAAAGTGATATTTAATAATTATTTATAATCAGCAACTTAACCACAAAACAACCATATATTGATATCTCACAAAACAACCATAAGTTGAGCGGGGGTGTCCGATCTGATTTCAGCAAAACTACTGCAGTAAGAA”, the “relative integration efficiency (log2)” value in data set [1] is -1.32 ± 0.58; in data set [2], -1.81 ± 0.51.
Consider “AATGTTGTTGATGCAACCATAAAGTGATATTTAATAATTATTTATACAACCATATATTGATATCTCATCAGCAACTTAACCACAAAAACAAAACAACCATAAGTTGATATTTTTGTGAATCGAGTATTTCAGCAAAACTACTGCAGTAAGAA”, for which the “relative integration efficiency (log2)” value was -4.35 ± 0.47 in data set [1] and -1.08 ± 0.46 in data set [2].
For “AATGTTGTTGATGCAACCATAAAATGATAATTAATAATTATTTATAATCAGCAACTTAACCACAAAACAACCATAAAATGATAATTATTTTGTCAACCATAAAATGATAATTATGTGAATCGAGTATTTCAGCAAAACTACTGCAGTAAGAA” the same measures were -1.39 ± 0.9 and -1.36 ± 1.1.
For “AATGTTGTTGATGCAACCATAAAGTGATATTTAATAATTATTTATAATCAGCAACTTAACCACAACCACCAACGCGCGGTCGCGAGACACCCCACCAACGCCTGGTCGCGGGGGTGTCCGATCTGATTTCAGCAAAACTACTGCAGTAAGAA” the same measures were -5.83 ± 1.9 and -4.35 ± 3.3.
As for “AATGTTGTTGATGCAACCATAAAGTGATATTTAACAACCATATATTGATATCTCACAAAACAACCATAAGTTGATATTTTTGTGAATCGAGTATTTCAGCAAAACTACTGCAGTAAGAAAGTTACTTCGTGGTATGGGAGGATCAAGGAGCC”, the figures for the “relative integration efficiency (log2)” value in data set [1] and in data set [2] were -2.74 ± 1 and -0.0605 ± 1, respectively.
